These results are taken from the supplement of paper PMC5998384.

In data set [1] the test system is HeLa Kyoto. The experiment in a line: solubility in G1/S (NP-40 vs SDS abundance) (log2 ratio); higher = more soluble. As to conditions: cell cycle stage: G1/S.
Data set [2] relates to HeLa Kyoto. The experiment in a line: melting temperature (median over replicates), in situ; higher = more thermally stable.
Data set [3] relates to HeLa Kyoto. Briefly: solubility change mitosis vs G1/S (difference of NP-40 vs SDS log2 ratios) (log2 ratio difference); higher = more soluble in mitosis.
Data set [4] has as its system HeLa Kyoto. Briefly: thermal stability score vs G1/S (z-score of summed log2 fold changes over temperatures); higher = more thermally stable than in G1/S.
[5] abbreviates: cell cycle stage: early G1 (4.5 h after nocodazole release).
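For melting temperature (median over replicates), in situ in this document: HeLa Kyoto cells synchronized by double thymidine or nocodazole block, proteins quantified by TMT10plex mass spectrometry, three independent biological replicates.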
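For solubility change mitosis vs G1/S (difference of NP-40 vs SDS log2 ratios) in this document: synchronized HeLa Kyoto cells (double thymidine block for G1/S, nocodazole release for mitosis), protein amounts in NP-40 versus SDS lysates quantified by mass spectrometry, three biological replicates.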
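For solubility in G1/S (NP-40 vs SDS abundance) in this document: HeLa Kyoto cells arrested at G1/S by double thymidine block, proteins quantified by TMT10plex mass spectrometry in mild NP-40 versus SDS extracts, three biological replicates.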
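For thermal stability score vs G1/S (z-score of summed log2 fold changes over temperatures) in this document: synchronized HeLa Kyoto cells, proteins quantified by TMT10plex mass spectrometry, three biological replicates, mitosis taken 0.5 h after nocodazole release, G1/S directly after double thymidine block.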

As to “MIEMAAEKEPFLVPAPPPPLKDESGGGGGPTVPPHQEAASGELRGGTERGPGRCAPSAGSPAAAVGRESPGAAATSSSGPQAQQHRGGGPQAQSHGEARLSDPPGRAAPPDVGEERRGGGGTELGPPAPPRPRNGYQPHRPPGGGGGKRRNSCNVGGGGGGFKHPAFKRRRRVNSDCDSVLPSNFLLGGNIFDPLNLNSLLDEEVSRTLNAETPKSSPLPAKGRDPVEILIPKDITDPLSLNTCTDEGHVVLASPLKTGRKRHRHRGQHHQQQQAAGGSESHPVPPTAPLTPLLHGEGASQQPRHRGQNRDAPQPYELNTAINCRDEVVSPLPSALQGPSGSLSAPPAASVISAPPSSSSRHRKRRRTSSKSEAGARGGGQGSKEKGRGSWGGRHHHHHPLPAAGFKKQQRKFQYGNYCKYYGYRNPSCEDGRLRVLKPEWFRGRDVLDLGCNVGHLTLSIACKWGPSRMVGLDIDSRLIHSARQNIRHYLSEELRLPPQTLEGDPGAEGEEGTTTVRKRSCFPASLTASRGPIAAPQVPLDGADTSVFPNNVVFVTGNYVLDRDDLVEAQTPEYDVVLCLSLTKWVHLNWGDEGLKRMFRRIYRHLRPGGILVLEPQPWSSYGKRKTLTETIYKNYYRIQLKPEQFSSYLTSPDVGFSSYELVATPHNTSKGFQRPVYLFHKARSPSH [MEPCE]”, in the data set with HeLa Kyoto [1], the “solubility in G1/S (log2)” value is -0.115. For the same sequence, the melting temperature in the data set on HeLa Kyoto [2] (cell cycle stage: G1/S) turned out to be 47.8 °C; in the data set with HeLa Kyoto [2] (cell cycle stage: mitosis), 49.8 °C. Besides, the “solubility change mitosis (log2)” value in the data set on HeLa Kyoto [3] amounted to 0.364. For the same sequence, the values for the thermal stability score with HeLa Kyoto [4] (setting [5]) and in the data set with HeLa Kyoto [4] (cell cycle stage: mitosis) were 2.47 and 4.6, respectively.
As for “MIFPVARYALRWLRRPEDRAFSRAAMEMALRGVRKVLCVAEKNDAAKGIADLLSNGRMRRREGLSKFNKIYEFDYHLYGQNVTMVMTSVSGHLLAHDFQMQFRKWQSCNPLVLFEAEIEKYCPENFVDIKKTLERETRQCQALVIWTDCDREGENIGFEIIHVCKAVKPNLQVLRARFSEITPHAVRTACENLTEPDQRVSDAVDVRQELDLRIGAAFTRFQTLRLQRIFPEVLAEQLISYGSCQFPTLGFVVERFKAIQAFVPEIFHRIKVTHDHKDGIVEFNWKRHRLFNHTACLVLYQLCVEDPMATVVEVRSKPKSKWRPQALDTVELEKLASRKLRINAKETMRIAEKLYTQGYISYPRTETNIFPRDLNLTVLVEQQTPDPRWGAFAQSILERGGPTPRNGNKSDQAHPPIHPTKYTNNLQGDEQRLYEFIVRHFLACCSQDAQGQETTVEIDIAQERFVAHGLMILARNYLDVYPYDHWSDKILPVYEQGSHFQPSTVEMVDGETSPPKLLTEADLIALMEKHGIGTDATHAEHIETIKARMYVGLTPDKRFLPGHLGMGLVEGYDSMGYEMSKPDLRAELEADLKLICDGKKDKFVVLRQQVQKYKQVFIEAVAKAKKLDEALAQYFGNGTELAQQEDIYPAMPEPIRKCPQCNKDMVLKTKKNGGFYLSCMGFPECRSAVWLPDSVLEASRDSSVCPVCQPHPVYRLKLKFKRGSLPPTMPLEFVCCIGGCDDTLREILDLRFSGGPPRASQPSGRLQANQSLNRMDNSQHPQPADSRQTGSSKALAQTLPPPTAAGESNSVTCNCGQEAVLLTVRKEGPNRGRQFFKCNGGSCNFFLWADSPNPGAGGPPALAYRPLGASLGCPPGPGIHLGGFGNPGDGSGSGTSCLCSQPSVTRTVQKDGPNKGRQFHTCAKPREQQCGFFQWVDENTAPGTSGAPSWTGDRGRTLESEARSKRPRASSSDMGSTAKKPRKCSLCHQPGHTRPFCPQNR [TOP3A]”, the “solubility in G1/S (log2)” value with HeLa Kyoto [1] was -0.336. Moreover, the results for the melting temperature in the data set on HeLa Kyoto [2] (cell cycle stage: G1/S) and in the data set with HeLa Kyoto [2] (cell cycle stage: mitosis) were 46.9 °C and 48.4 °C, respectively. In addition, the “solubility change mitosis (log2)” value in the data set on HeLa Kyoto [3] was 0.0865. The thermal stability score in the data set with HeLa Kyoto [4] (setting [5]) turned out to be 1.18; in the data set with HeLa Kyoto [4] (cell cycle stage: mitosis) it was 1.85.
For the sequence “MIIPSLEELDSLKYSDLQNLAKSLGLRANLRATKLLKALKGYIKHEARKGNENQDESQTSASSCDETEIQISNQEEAERQPLGHVTKTRRRCKTVRVDPDSQQNHSEIKISNPTEFQNHEKQESQDLRATAKVPSPPDEHQEAENAVSSGNRDSKVPSEGKKSLYTDESSKPGKNKRTAITTPNFKKLHEAHFKEMESIDQYIERKKKHFEEHNSMNELKQQPINKGGVRTPVPPRGRLSVASTPISQRRSQGRSCGPASQSTLGLKGSLKRSAISAAKTGVRFSAATKDNEHKRSLTKTPARKSAHVTVSGGTPKGEAVLGTHKLKTITGNSAAVITPFKLTTEATQTPVSNKKPVFDLKASLSRPLNYEPHKGKLKPWGQSKENNYLNQHVNRINFYKKTYKQPHLQTKEEQRKKREQERKEKKAKVLGMRRGLILAED [NUSAP1]”, the “solubility in G1/S (log2)” value in the data set on HeLa Kyoto [1] is -0.327. Further, the results for the melting temperature in the data set on HeLa Kyoto [2] (cell cycle stage: G1/S) and in the data set with HeLa Kyoto [2] (cell cycle stage: mitosis) were 54.7 °C and 54.6 °C, respectively. Besides, in the data set on HeLa Kyoto [3], the “solubility change mitosis (log2)” value worked out at 0.535. Moreover, the thermal stability score was 1.75 with HeLa Kyoto [4] (setting [5]) and -5.46 in the data set on HeLa Kyoto [4] (cell cycle stage: mitosis).
As to “MIKLFSLKQQKKEEESAGGTKGSSKKASAAQLRIQKDINELNLPKTCDISFSDPDDLLNFKLVICPDEGFYKSGKFVFSFKVGQGYPHDPPKVKCETMVYHPNIDLEGNVCLNILREDWKPVLTINSIIYGLQYLFLEPNPEDPLNKEAAEVLQNNRRLFEQNVQRSMRGGYIGSTYFERCLK [UBE2M]”, the “solubility in G1/S (log2)” value in the data set with HeLa Kyoto [1] worked out at 0.576. For the same sequence, the melting temperature in the data set on HeLa Kyoto [2] (cell cycle stage: G1/S) came out at 51.1 °C; with HeLa Kyoto [2] (cell cycle stage: mitosis) it was 51.2 °C. Besides, in the data set on HeLa Kyoto [3], the “solubility change mitosis (log2)” value was -0.0392. Moreover, the thermal stability score with HeLa Kyoto [4] (setting [5]) was -1.49; in the data set on HeLa Kyoto [4] (cell cycle stage: mitosis), -1.29.
In the case of “MIPLLLAALLCVPAGALTCYGDSGQPVDWFVVYKLPALRGSGEAAQRGLQYKYLDESSGGWRDGRALINSPEGAVGRSLQPLYRSNTSQLAFLLYNDQPPQPSKAQDSSMRGHTKGVLLLDHDGGFWLVHSVPNFPPPASSAAYSWPHSACTYGQTLLCVSFPFAQFSKMGKQLTYTYPWVYNYQLEGIFAQEFPDLENVVKGHHVSQEPWNSSITLTSQAGAVFQSFAKFSKFGDDLYSGWLAAALGTNLQVQFWHKTVGILPSNCSDIWQVLNVNQIAFPGPAGPSFNSTEDHSKWCVSPKGPWTCVGDMNRNQGEEQRGGGTLCAQLPALWKAFQPLVKNYQPCNGMARKPSRAYKI [DNASE2]”, in the data set with HeLa Kyoto [1], the “solubility in G1/S (log2)” value came to 0.364. The melting temperature in the data set on HeLa Kyoto [2] (cell cycle stage: G1/S) came out at 56.2 °C; in the data set on HeLa Kyoto [2] (cell cycle stage: mitosis), 56.1 °C. The “solubility change mitosis (log2)” value with HeLa Kyoto [3] was -0.0918. The values for the thermal stability score in the data set with HeLa Kyoto [4] (setting [5]) and in the data set on HeLa Kyoto [4] (cell cycle stage: mitosis) were -1.39 and -2.33, respectively.
As for “MIRAAPPPLFLLLLLLLLLVSWASRGEAAPDQDEIQRLPGLAKQPSFRQYSGYLKGSGSKHLHYWFVESQKDPENSPVVLWLNGGPGCSSLDGLLTEHGPFLVQPDGVTLEYNPYSWNLIANVLYLESPAGVGFSYSDDKFYATNDTEVAQSNFEALQDFFRLFPEYKNNKLFLTGESYAGIYIPTLAVLVMQDPSMNLQGLAVGNGLSSYEQNDNSLVYFAYYHGLLGNRLWSSLQTHCCSQNKCNFYDNKDLECVTNLQEVARIVGNSGLNIYNLYAPCAGGVPSHFRYEKDTVVVQDLGNIFTRLPLKRMWHQALLRSGDKVRMDPPCTNTTAASTYLNNPYVRKALNIPEQLPQWDMCNFLVNLQYRRLYRSMNSQYLKLLSSQKYQILLYNGDVDMACNFMGDEWFVDSLNQKMEVQRRPWLVKYGDSGEQIAGFVKEFSHIAFLTIKGAGHMVPTDKPLAAFTMFSRFLNKQPY [CTSA]”, the “solubility in G1/S (log2)” value in the data set with HeLa Kyoto [1] was 0.138. Besides, the figures for the melting temperature in the data set with HeLa Kyoto [2] (cell cycle stage: G1/S) and in the data set on HeLa Kyoto [2] (cell cycle stage: mitosis) were 54.5 °C and 57 °C, respectively. The “solubility change mitosis (log2)” value in the data set on HeLa Kyoto [3] is -0.0924. Moreover, the thermal stability score is 0.798 in the data set on HeLa Kyoto [4] (setting [5]) and 2.87 in the data set on HeLa Kyoto [4] (cell cycle stage: mitosis).
